Laboratory results as given in PMC6430086.

Legend:
[1] = molecular target: HIV-1 envelope glycoprotein gp41 (HIV-1) (UniProt P04578)
[2] = molecular target: HIV-1 envelope glycoprotein gp120 (HIV-1) (UniProt P04578)

Substance	EC50 to inhibit giant cell (syncytium) formation in SupT1 + HUT-78/HIV-1 co-cultures (fusion by gp120/gp41-CD4 interaction) [1] [µM]	EC50 to inhibit giant cell (syncytium) formation in SupT1 + HUT-78/HIV-1 co-cultures (fusion by gp120/gp41-CD4 interaction) [2] [µM]
Dioclea sclerocarpa lectin (natural protein)	0.063	0.063
Dioclea lasiocarpa lectin (natural protein)	0.046	0.046
Canavalia brasiliensis lectin (from UniProt P55915 1-237) (natural protein)	0.075	0.075
Canavalia maritima lectin (natural protein)	0.075	0.075
